According to patent US20260347495 (published 2026):

Legend:
[1] = target: transferrin (human, UniProt P02787); test: ELISA
[2] = target: lactotransferrin (human, UniProt P02788); test: ELISA
Sequence of lactotransferrin (P02788 20-710): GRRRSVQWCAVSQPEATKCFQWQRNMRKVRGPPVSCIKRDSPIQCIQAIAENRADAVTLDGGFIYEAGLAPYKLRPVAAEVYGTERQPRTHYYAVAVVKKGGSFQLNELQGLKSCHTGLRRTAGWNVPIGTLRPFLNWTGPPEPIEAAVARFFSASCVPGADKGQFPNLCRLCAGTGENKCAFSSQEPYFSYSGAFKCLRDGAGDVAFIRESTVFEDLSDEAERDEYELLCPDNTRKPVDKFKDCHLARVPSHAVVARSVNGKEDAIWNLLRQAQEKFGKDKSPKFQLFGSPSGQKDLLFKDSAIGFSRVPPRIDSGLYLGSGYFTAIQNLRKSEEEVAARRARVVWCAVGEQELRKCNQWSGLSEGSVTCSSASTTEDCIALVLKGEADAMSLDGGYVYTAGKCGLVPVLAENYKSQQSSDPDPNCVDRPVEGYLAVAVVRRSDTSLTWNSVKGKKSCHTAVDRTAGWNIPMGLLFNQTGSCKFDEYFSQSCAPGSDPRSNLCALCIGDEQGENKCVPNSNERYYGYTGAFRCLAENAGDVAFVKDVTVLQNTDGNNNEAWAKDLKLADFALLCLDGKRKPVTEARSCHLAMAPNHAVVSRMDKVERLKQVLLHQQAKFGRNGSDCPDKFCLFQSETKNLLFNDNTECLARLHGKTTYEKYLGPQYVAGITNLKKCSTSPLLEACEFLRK

Sequence of transferrin (P02787 20-698): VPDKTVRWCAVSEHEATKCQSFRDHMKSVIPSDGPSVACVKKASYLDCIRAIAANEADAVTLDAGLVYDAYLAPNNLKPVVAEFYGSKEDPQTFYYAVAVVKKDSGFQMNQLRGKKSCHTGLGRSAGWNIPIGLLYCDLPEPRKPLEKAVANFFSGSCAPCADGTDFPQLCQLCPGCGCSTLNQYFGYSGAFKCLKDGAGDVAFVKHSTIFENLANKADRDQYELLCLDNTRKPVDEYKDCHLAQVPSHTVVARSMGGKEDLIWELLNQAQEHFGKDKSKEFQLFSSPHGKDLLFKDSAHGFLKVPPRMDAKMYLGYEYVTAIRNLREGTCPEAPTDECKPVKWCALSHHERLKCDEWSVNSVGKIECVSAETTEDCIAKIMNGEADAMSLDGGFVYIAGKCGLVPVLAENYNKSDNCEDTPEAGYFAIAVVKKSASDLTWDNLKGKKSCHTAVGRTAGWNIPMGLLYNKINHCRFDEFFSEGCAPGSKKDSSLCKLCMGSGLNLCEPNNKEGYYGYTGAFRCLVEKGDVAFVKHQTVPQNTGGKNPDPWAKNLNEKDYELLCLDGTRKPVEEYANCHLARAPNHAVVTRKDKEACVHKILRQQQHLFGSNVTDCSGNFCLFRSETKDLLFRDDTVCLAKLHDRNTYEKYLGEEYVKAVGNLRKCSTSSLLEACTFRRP

| Binder | binding result [1] | binding result [2] |
| --- | --- | --- |
| OMT36 (clone 36) (antibody, V domains shown) VH: QVQLVQSGAEVKKPGASVKVSCKASGYTFTNYDINWVRQATGQGLEWMGWMNPNSGNTDYVQKFQGRVAMTRITSISTAYLELSSLRSDDTAVYYCARGLHSGDYYSYGMDVWGQGTTVTVSS VL: SYELTQPPSVSVSPGQTARITCSGDALPNQYAYWYQQKPGQAPVLVIYKDSERPSGIPERFSGSSSGTTVTLTISGVQAEDEADYYCQSADSSGTVVFGGGTKLSVL | no binding | no binding |
| OMT30 (clone 30) (antibody, V domains shown) VH: QVQLVESGGGVVQPGRSLRLSCAASGFTFSSYGIHWVRQAPGKGLEWVAVIWYDGSNKYYADSVKGRFTISRDNSKNTLYLQMNSLRAEDTAVYYCARRGDSSSWHFDYWGQGTLVTVSS VL: QSALTQPASVSGSPGQSITISCTGTSSDVGRHNLVSWYQQHPGKVPKVMIYEVTKRPAGVSNRFSGSKSGNTASLTISGLQAEDEADYYCCSYAGSSTYVFGTGTRVTVL | no binding | no binding |
| OMT35 (clone 35) (antibody, V domains shown) VH: QVQLQQSGPGLVKPSQTLSLTCAISGDSVSSNSAAWNWIRQSPSSGLEWLGRTYYRSKWFDDYAVSVKGRITINPDTSKNQFSLQLKFVIPEDTAVYYCARRVHWGGPFDYWGQGTLVTVSS VL: DIQLTQSPSFLSASVGDRVTITCRASQGISSYLAWYQQRPGKAPKVLISVASTLQSGVPSRFSGSGSGTDFTLTISSLQPEDFATYYCQQLTGYPFTFGPGTKVDIK | no binding | no binding |
| OMT8 (clone 8) (antibody, V domains shown) VH: QVQLQESGPGLVKPSQTLSLTCTVSGGSISSGGYYWSWIRQHPGKGLEWIGYIHYIGSTYQNPSLKSRVTMSVDTSKNQFSLRLTSVTAADTAVYYCARESGDTAMVFDYWGQGTQVTVSS VL: QSALTQPPSASGSPGQSVTISCTGTSSDVGGYNYVSWYQQHPGKAPKVMIYEVSTRPSGVPDRFSGSKSGNTASLTVSGLQAEDEADYYCSSYAGNNNFVFGTGTKVTVL | no binding | no binding |
| OMT24 (clone 24) (antibody, V domains shown) VH: QVQLVQSGSELKKPGASVKVSCKASGYTFTTYVMNWVRQAPGQGLEWMGWINTNTGNPTYAQGFTGRFVFSVDTSVSTAYLQISSLKAEDTAVYYCARDRVLLWFGAGYYHYGMDVWGQGTTVTVSS VL: SSELTQDPAVSVALGQTVRITCQGDSLRSYYTSWYQQKPGQAPVFVIYGKNNRPSGIPDRFSGSSSGNTASLTITGAQAEDEADYYCNSRDSSGNHVVFGGGTKLTVL | no binding | no binding |
